Reference: patent publication US20140105889A1 (published 2014)

T1: human FcγRIIa type H (allotype H131) (human, UniProt P12318 36-217)
T1 construct: also called FcγRIIaH; FcγRIIa(H)
T1 sequence: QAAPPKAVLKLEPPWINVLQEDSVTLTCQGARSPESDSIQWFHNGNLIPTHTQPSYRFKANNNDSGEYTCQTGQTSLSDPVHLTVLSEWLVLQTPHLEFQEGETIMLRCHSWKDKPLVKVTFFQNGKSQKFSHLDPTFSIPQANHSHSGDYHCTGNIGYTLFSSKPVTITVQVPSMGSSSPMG

T2: human FcγRIIb (human, UniProt P31994 43-217)
T2 construct: also called FcγIIB
T2 sequence: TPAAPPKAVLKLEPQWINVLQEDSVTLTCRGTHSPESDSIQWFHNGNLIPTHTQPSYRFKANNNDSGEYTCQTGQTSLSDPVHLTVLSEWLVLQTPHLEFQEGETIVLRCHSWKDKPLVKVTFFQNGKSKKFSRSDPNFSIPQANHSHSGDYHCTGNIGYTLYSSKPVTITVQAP


Key:
[1] = molecular target: T3, human FcRn (human); assay: SPR (Biacore), pH 7.0, 25 C, antibody captured by Protein L, human FcRn as analyte
T3 construct: also called hFcRn; soluble human FcRn complexed with β2-microglobulin
Protocol: A kinetic analysis of binding between human FcRn and the aforementioned antibodies was carried out using the Biacore T100 or T200 (GE Healthcare). The antibodies being tested were captured on the CM4 Sensor Chip (GE Healthcare) on which a suitable amount of Protein L (ACTIGEN) was suitably immobilized by amine coupling. Next, diluted human FcRn and a running buffer used as a blank were injected to allow the human FcRn to interact with the antibody captured on the sensor chip. A buffer consisting of 50 mmol/L sodium phosphate, 150 mmol/L NaCl and 0.05% (w/v) Tween 20 (pH 7.0 or pH 7.4) was used for the running buffer, and each buffer was also used to dilute the human FcRn. 10 mmol/L glycine-HCl (pH 1.5) was used to regenerate the sensor chip. All measurements of binding were carried out at 25° C. The KD(M) of each antibody to human FcRn was calculated based on kinetics parameters, i.e., the association rate constant ka (1/Ms) and the dissociation rate constant kd (1/s) calculated from a sensorgram obtained by the measurement. The Biacore T100 or T200 Evaluation Software (GE Healthcare) was used to calculate each parameter.

[2] = molecular target: T1, human FcγRIIa type H (allotype H131); assay: SPR (Biacore), antibody captured on the chip, FcγR as analyte
[3] = molecular target: T2, human FcγRIIb; assay: SPR (Biacore); KD of parent IL6R-B3/IL6R-L for FcγRIIb divided by KD of the variant for FcγRIIb
Description: Furthermore, KD(IIaR)/KD(IIb) and KD(IIaH)/KD(IIb) in the table respectively represent the value obtained by dividing the KD value of each variant for FcγRIIaR by the KD value of each variant for FcγRIIb, and the value obtained by dividing the KD value of each variant for FcγRIIaH by the KD value of each variant for FcγRIIb.

[4] = molecular target: T4, FcγRIIIa type V (human, UniProt P08637 17-208, limits assumed); assay: SPR (Biacore), antibody captured on chip, FcγR as analyte, method of Example 14
T4 construct: Soluble analyte in Biacore; also called FcγRIIIaV; FcγRIIIa(V)
T4 sequence (P08637 other isoform, or with tags, fused parts or gaps limits assumed): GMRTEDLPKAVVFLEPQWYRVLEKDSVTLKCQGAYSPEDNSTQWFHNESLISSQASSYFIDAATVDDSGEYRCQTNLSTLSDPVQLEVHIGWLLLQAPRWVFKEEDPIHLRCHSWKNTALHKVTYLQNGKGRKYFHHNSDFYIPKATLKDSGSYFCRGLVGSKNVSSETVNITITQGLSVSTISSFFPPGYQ

Row | Kd [1] [nM] | Binder | further results
1 | 143 | F1060 (antibody, human IgG1, kappa, name in EU numbering, copies: 2 + 2) heavy: QVQLQESGPGLVKPSETLSLTCAVSGHSISHDHAWSWVRQPPGEGLEWIGFISYSGITNYNPSLQGRVTISRDNSKNTLYLQMNSLRAEDTAVYYCARSLARTTAMDYWGEGTLVTVSSASTKGPSVFPLAPSSKSTSGGTAALGCLVKDYFPEPVTVSWNSGALTSGVHTFPAVLQSSGLYSLSSVVTVPSSSLGTQTYICNVNHKPSNTKVDKKVEPKSCDKTHTCPPCPAPELLGGPSVFLFPPKPKDTLYISRTPEVTCVVVDVSHEDPEVKFNWYVDGVEVHNAKTKPREEQYNSTYRVVSVLTVLHQDWLNGKEYKCKVSNKALPAPIEKTISKAKGQPREPQVYTLPPSRDELTKNQVSLTCLVKGFYPSDIAVEWESNGSPENNYKTTPPVLDSDGSFFLYSKLTVDKSRWQQGNVFSCSVMHEALHYHVTQKSLSLSP light: not shown | 
2 |  | IL6R-BP201/IL6R-L (antibody, human IgG1, Anti-human IL-6 receptor human IgG1 variant; copies: 2 + 2) heavy: QVQLQESGPGLVKPSETLSLTCAVSGHSISHDHAWSWVRQPPGEGLEWIGFISYSGITNYNPSLQGRVTISRDNSKNTLYLQMNSLRAEDTAVYYCARSLARTTAMDYWGEGTLVTVSSASTKGPSVFPLAPSSKSTSGGTAALGCLVKDYFPEPVTVSWNSGALTSGVHTFPAVLQSSGLYSLSSVVTVPSSSLGTQTYICNVNHKPSNTKVDKKVEPKSCDKTHTCPPCPAPDLLGDDSVFLFPPKPKDTLMISRTPEVTCVVVDVSHEDGEVKFNWYVDGVEVHNAKTKPREEQYNSTYRVVSVLTVLHQDWLNGKEYKCKVSNKALPRPIEKTISKAKGQPREPQVYTLPPSRDELTKNQVSLTCLVKGFYPSDIAVEWESNGQPENNYKTTPPVLDSDGSFFLYSKLTVDKSRWQQGNVFSCSVMHEALHNHYTQESLSLSP light: DIQMTQSPSSLSASVGDRVTITCRASQDISSYLNWYQQKPGKAPKLLIYYTSRLHSGVPSRFSGSGSGTDFTFTISSLQPEDIATYYCQQGNTLPYTFGQGTKVEIK | Kd [2]: 6900 nM; KD(IIb) of the parent polypeptide/KD(IIb) of the altered polypeptide [3]: 77.1
3 |  | IL6R-BP211/IL6R-L (antibody, human IgG1, Anti-human IL-6 receptor IgG1 Fc variant) heavy: QVQLQESGPGLVKPSETLSLTCAVSGHSISHDHAWSWVRQPPGEGLEWIGFISYSGITNYNPSLQGRVTISRDNSKNTLYLQMNSLRAEDTAVYYCARSLARTTAMDYWGEGTLVTVSSASTKGPSVFPLAPSSKSTSGGTAALGCLVKDYFPEPVTVSWNSGALTSGVHTFPAVLQSSGLYSLSSVVTVPSSSLGTQTYICNVNHKPSNTKVDKKVEPKSCDKTHTCPPCPAPDLLGGDSVFLFPPKPKDTLMISRTPEVTCVVVDVSDEDGEVKFNWYVDGVEVHNAKTKPREEQYNSTYRVVSVLTVLHQDWLNGKEYKCKVSNAALPRPIEKTISKAKGQPREPQVYTLPPSRDELTKNQVSLTCLVKGFYPSDIAVEWESNGQPENNYKTTPPVLDSDGSFFLYSKLTVDKSRWQQGNVFSCSVMHEALHNHYTQESLSLSP light: DIQMTQSPSSLSASVGDRVTITCRASQDISSYLNWYQQKPGKAPKLLIYYTSRLHSGVPSRFSGSGSGTDFTFTISSLQPEDIATYYCQQGNTLPYTFGQGTKVEIK | Kd [4]: 75000 nM
4 | 124 | F1071 (antibody, human IgG1, kappa, name in EU numbering, copies: 2 + 2) heavy: QVQLQESGPGLVKPSETLSLTCAVSGHSISHDHAWSWVRQPPGEGLEWIGFISYSGITNYNPSLQGRVTISRDNSKNTLYLQMNSLRAEDTAVYYCARSLARTTAMDYWGEGTLVTVSSASTKGPSVFPLAPSSKSTSGGTAALGCLVKDYFPEPVTVSWNSGALTSGVHTFPAVLQSSGLYSLSSVVTVPSSSLGTQTYICNVNHKPSNTKVDKKVEPKSCDKTHTCPPCPAPELLGGPSVFLFPPKPKDTLYISRTPEVTCVVVDVSHEDPEVKFNWYVDGVEVHNAKTKPREEQYNSTYRVVSVLTVLHQDWLNGKEYKCKVSNKALPAPIEKTISKAKGQPREPQVYTLPPSRDELTKNQVSLTCLVKGFYPSDIAVEWESNGQPENNYKTTPPVLDSDGSFFLYSKLTVDKSRWQQGNVFSCSVMHEALHYHVTSKSLSLSP light: not shown | 
5 | 470 | F1078 (antibody, human IgG1, kappa, name in EU numbering, copies: 2 + 2) heavy: QVQLQESGPGLVKPSETLSLTCAVSGHSISHDHAWSWVRQPPGEGLEWIGFISYSGITNYNPSLQGRVTISRDNSKNTLYLQMNSLRAEDTAVYYCARSLARTTAMDYWGEGTLVTVSSASTKGPSVFPLAPSSKSTSGGTAALGCLVKDYFPEPVTVSWNSGALTSGVHTFPAVLQSSGLYSLSSVVTVPSSSLGTQTYICNVNHKPSNTKVDKKVEPKSCDKTHTCPPCPAPELLGGPSVFLFPPKPKDTLYISRTPEVTCVVVDVSHEDPEVKFNWYVDGVEVHNAKTKPREEQYNSTYRVVSVLTVLHQDWLNGKEYKCKVSNKALPAPIEKTISKAKGQPREPQVYTLPPSRDELTKNQVSLTCLVKGFYPSDIAVNWSSNGQPENNYKTTPPVLDSDGSFFLYSKLTVDKSRWQQGNVFSCSVMHEALHYHYTQKSLSLSP light: not shown | 
6 | 344 | F1079 (antibody, human IgG1, kappa, name in EU numbering, copies: 2 + 2) heavy: QVQLQESGPGLVKPSETLSLTCAVSGHSISHDHAWSWVRQPPGEGLEWIGFISYSGITNYNPSLQGRVTISRDNSKNTLYLQMNSLRAEDTAVYYCARSLARTTAMDYWGEGTLVTVSSASTKGPSVFPLAPSSKSTSGGTAALGCLVKDYFPEPVTVSWNSGALTSGVHTFPAVLQSSGLYSLSSVVTVPSSSLGTQTYICNVNHKPSNTKVDKKVEPKSCDKTHTCPPCPAPELLGGPSVFLFPPKPKDTLYISRTPEVTCVVVDVSHEDPEVKFNWYVDGVEVHNAKTKPREEQYNSTYRVVSVLTVLHQDWLNGKEYKCKVSNKALPAPIEKTISKAKGQPREPQVYTLPPSRDELTKNQVSLTCLVKGFYPSDIAVEWNSSGQPENNYKTTPPVLDSDGSFFLYSKLTVDKSRWQQGNVFSCSVMHEALHYHYTQKSLSLSP light: not shown | 
7 |  | IL6R-BP203/IL6R-L (antibody, human IgG1, Anti-human IL-6 receptor IgG1 Fc variant) heavy: QVQLQESGPGLVKPSETLSLTCAVSGHSISHDHAWSWVRQPPGEGLEWIGFISYSGITNYNPSLQGRVTISRDNSKNTLYLQMNSLRAEDTAVYYCARSLARTTAMDYWGEGTLVTVSSASTKGPSVFPLAPSSKSTSGGTAALGCLVKDYFPEPVTVSWNSGALTSGVHTFPAVLQSSGLYSLSSVVTVPSSSLGTQTYICNVNHKPSNTKVDKKVEPKSCDKTHTCPPCPAPELLGDDSVFLFPPKPKDTLMISRTPEVTCVVVDVSHEDGEVKFNWYVDGVEVHNAKTKPREEQYNSTYRVVSVLTVLHQDWLNGKEYKCKVSNKALPRPIEKTISKAKGQPREPQVYTLPPSRDELTKNQVSLTCLVKGFYPSDIAVEWESNGQPENNYKTTPPVLDSDGSFFLYSKLTVDKSRWQQGNVFSCSVMHEALHNHYTQESLSLSP light: DIQMTQSPSSLSASVGDRVTITCRASQDISSYLNWYQQKPGKAPKLLIYYTSRLHSGVPSRFSGSGSGTDFTFTISSLQPEDIATYYCQQGNTLPYTFGQGTKVEIK | Kd [4]: 72000 nM
8 | 135 | F1072 (antibody, name in EU numbering, copies: 2 + 2) heavy: QVQLQESGPGLVKPSETLSLTCAVSGHSISHDHAWSWVRQPPGEGLEWIGFISYSGITNYNPSLQGRVTISRDNSKNTLYLQMNSLRAEDTAVYYCARSLARTTAMDYWGEGTLVTVSSASTKGPSVFPLAPSSKSTSGGTAALGCLVKDYFPEPVTVSWNSGALTSGVHTFPAVLQSSGLYSLSSVVTVPSSSLGTQTYICNVNHKPSNTKVDKKVEPKSCDKTHTCPPCPAPELLGGPSVFLFPPKPKDTLYISRTPEVTCVVVDVSHEDPEVKFNWYVDGVEVHNAKTKPREEQYNSTYRVVSVLTVLHQDWLNGKEYKCKVSNKALPAPIEKTISKAKGQPREPQVYTLPPSRDELTKNQVSLTCLVKGFYPSDIAVEWESNGQPENNYKTTPPVLDSDGSFFLYSKLTVDKSRWQQGNVFSCSVMHEALHYHVTQKELSLSP light: not shown | 
9 | 257 | F1099 (antibody, human IgG1, kappa, name in EU numbering, copies: 2 + 2) heavy: QVQLQESGPGLVKPSETLSLTCAVSGHSISHDHAWSWVRQPPGEGLEWIGFISYSGITNYNPSLQGRVTISRDNSKNTLYLQMNSLRAEDTAVYYCARSLARTTAMDYWGEGTLVTVSSASTKGPSVFPLAPSSKSTSGGTAALGCLVKDYFPEPVTVSWNSGALTSGVHTFPAVLQSSGLYSLSSVVTVPSSSLGTQTYICNVNHKPSNTKVDKKVEPKSCDKTHTCPPCPAPELLGGPSVFLFPPKPKDTLYISRTPEVTCVVVDVSHEDPEVKFNWYVDGVEVHNAKTKPREEQYNSTYRVVSVLTVLHQDWLNGKEYKCKVSNDAYPAPIEKTISKAKGQPREPQVYTLPPSRDELTKNQVSLTCLVKGFYPSDIAVEWESNGQPENNYKTTPPVLDSDGSFFLYSKLTVDKSRWQQGNVFSCSVMHEALHYHYTQKSLSLSP light: not shown | 
10 | 127 | F1076 (antibody, human IgG1, kappa, name in EU numbering, copies: 2 + 2) heavy: QVQLQESGPGLVKPSETLSLTCAVSGHSISHDHAWSWVRQPPGEGLEWIGFISYSGITNYNPSLQGRVTISRDNSKNTLYLQMNSLRAEDTAVYYCARSLARTTAMDYWGEGTLVTVSSASTKGPSVFPLAPSSKSTSGGTAALGCLVKDYFPEPVTVSWNSGALTSGVHTFPAVLQSSGLYSLSSVVTVPSSSLGTQTYICNVNHKPSNTKVDKKVEPKSCDKTHTCPPCPAPELLGGPDVFLFPPKPKDTLYISRTPEVTCVVVDVSHEDPEVKFNWYVDGVEVHNAKTKPREEQYNSTYRVVSVLTVLHQDWLNGKEYKCKVSNDAYPAPIEKTISKAKGQPREPQVYTLPPSRDELTKNQVSLTCLVKGFYPSDIAVEWESNGQPENNYKTTPPVLDSDGSFFLYSKLTVDKSRWQQGNVFSCSVMHEALHYHVTQKSLSLSP light: not shown | 
